Assay results as given in patent US20220380739A1 (Boehringer Ingelheim, published 2022).
Changes are numbered by the printed parent chain. Like-named read-outs stand apart in the source and are kept apart here. Each block holds one binder with its values, some of them ahead of it.

How the values were obtained:
6H-GSG-VDVAD-BIWA4 [1] = assay: cell-based or functional assay
6H-GSG-VDVAD-BIWA4 [2] = assay: cell-based or functional assay; remark: listed apart in the source

Sequence of 6H-GSG-VDVAD-BIWA4 (scFv, as listed by the source): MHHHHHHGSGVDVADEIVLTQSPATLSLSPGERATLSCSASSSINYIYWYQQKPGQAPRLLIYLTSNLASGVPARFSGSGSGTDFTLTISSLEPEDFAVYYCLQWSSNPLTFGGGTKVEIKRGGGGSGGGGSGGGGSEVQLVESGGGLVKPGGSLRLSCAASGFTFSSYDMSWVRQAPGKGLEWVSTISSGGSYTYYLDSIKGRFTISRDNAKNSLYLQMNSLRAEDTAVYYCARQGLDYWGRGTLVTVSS

KM (6H-GSG-VDVAD-BIWA4 [1]): 0.00016
KM (6H-GSG-VDVAD-BIWA4 [2]): 0.00016
B1: T7AC_6H_mS9ProE (enzyme)
chain: MLEDPERNKERKEAELQAQTAEQHHHHHHGKNHAGSPGCEESAAGKEKLPKMRLPTRSDMICGYACLKGTAAMRNTKRGSWYIEALAQVFSERACDMHVADMLVKVNALIKDREGYAPGTEFHRCKVMSEYCSTLCRHLYLFPGHPPTGSGPVCLQVKPCTPEFYQTHFQLAYRLQSRPRGLALVLSNVHFTDEKELEFRSGGDVDHSTLVTLFKLLGYDVHVLCDQTAQEMQEKLQNFAQLPAHRGTDSCIVALLSHGVEGAIYGVDGKLLQLQEVFQLFDNANCPSLQNKPKMFFIQACRGEETERGVDQQD

KM (6H-GSG-VDVAD-BIWA4 [1]): 0.00023
KM (6H-GSG-VDVAD-BIWA4 [2]): 0.00023
B2: T7AC_6H_mS9ProD (enzyme)
chain: B1 chain with E307D
